Measured values published in patent US20150132317A1.

Target: ALK F1174L, human (human) (UniProt Q9UM73)
Assay: flow cytometry, SY5Y cells stained with isotype control

isotype control (antibody) showed a mean fluorescence intensity (MFI) of 90.
